From the supplement of paper PMC10567573

B1: PI4K2A (parent)
chain: FVKDPQGRIIAVFKPKNEEPYGHL
B2: CCDC6 (parent)
chain: TLFKKIQALQKEKETLAVNYEKEE

Variants of: B1
Experiment: protein stability index of a GFP-peptide fusion (GPS, HEK-293T) (PSI 1-6); higher = more stable
Conditions: c terminus: a fixed tail appended
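Further: lentivirally expressed fusions sorted by FACS into six bins by GFP to DsRed ratio, PSI derived from sequencing read proportions per bin multiplied by bin number.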

Protein stability index: each site, then its substitutions
F1: V 2.84, S 2.76, G 3.09, T 3.36, A 2.63, E 3.71, C 2.77, W 1.89, N 3.21, M 2.76, D 3.69, H 2.44, Q 3.69, I 2.18, K 2.8, L 2.25, P 4.09
K3: L 1.85, S 2.67, A 1.57, H 1.68, G 2.56, M 1.47, Y 2.01, P 1.91, Q 1.32, R 3.49, W 2.19, I 2.03, C 2.7, E 1.42
V2: E 3.33, F 2.17, A 2.07, I 2.01, D 3.36, R 2.88, S 2.44, T 1.94, G 2.09, P 2.13, Q 1.99, Y 1.95, L 2.45, M 2.42, C 1.33, K 2.04, N 3.04, W 1.71
D4: H 1.12, A 2.86, E 1.49, G 1, C 2.08, F 2.21

Variants of: B2
Experiment: as above
Conditions: c terminus: a fixed tail appended

Protein stability index of substitutions, site by site:
E14: I 2.25, V 2.6, D 3.25, T 2.55, K 2.94, A 2.6, R 2.6, F 2.16, S 2.46, P 2.64, Y 2.05, C 2.89, W 2.03, M 2.27, L 1.97, G 3.1, H 2.58, N 3.15, Q 3.11
Q10: N 2.89, L 2.45, G 3.89, W 2.65, I 2.35, R 2.64, M 2.42, T 3.79, P 3.99, H 3.3, V 2.91, K 3.08, S 3.41, Y 2.64
E12: Y 2.11, R 2.75, T 2.62, M 2.49, N 3.09, K 2.59, W 1.81, Q 2.64, V 2.52, S 2.63, L 1.97, P 3.66, A 2.66, D 3.37, H 2.63, C 2.1, F 1.85, I 2.27, G 3.05
T15: I 3.98, C 2.84, Y 3.08, K 3.3, N 3.23, S 2.91, G 3.25, P 3.56, F 2.06, H 2.76, E 3.77, D 3.89, R 2.88, L 2.54, A 2.97, M 2.85, Q 2.98, V 3.42, W 1.92
K22: N 3.12, R 2.94, C 3.46, H 3.15, W 2.48, E 3.72, F 2.57, Q 3.3, V 2.94, G 3.39, A 3.27, D 3.88, L 2.89, T 2.68, I 2.74, M 3.08, S 3.29, P 3.5, Y 2.64
K13: I 2.2, C 2.28, S 3.23, W 1.91, G 3.73, M 2.65, N 3.17, V 1.84, H 2.81, A 2.58, Q 3.13, Y 2.09, D 3.96, R 3.49, T 3.4, L 1.93, E 3.78, P 3.51
L16: T 3.49, M 3.24, F 2.81, W 1.86, S 4.02, E 4.07, P 3.44, H 3.91, G 4.09, C 3.05, D 3.88, K 2.83, Y 3.58, R 3.02, I 2.69, A 3.32, Q 4.1, N 3.6, V 3.23
Y20: I 2.96, D 4.09, G 3.71, M 2.45, S 3.84, H 3.62, P 3.21, K 3.68, F 3.06, W 3.26, C 3.32, Q 4.34, N 3.57, R 3.53, A 3.54, E 4.32, V 3.47, L 3.45, T 3.62
N19: I 2.7, Y 2.33, E 3.64, M 2.65, T 3.34, V 2.58, H 3.08, C 3.14, A 3.11, Q 3.08, W 2.11, P 3.24, L 2.41, S 2.99, R 2.57, F 2.18, K 2.69, D 3.15, G 3.25
E21: I 1.97, D 3.2, C 2.53, M 2.11, K 2.58, S 3.06, T 2.84, Q 3.1, H 2.84, G 3.01, P 2.72, V 2.52, F 1.62, Y 1.78, L 2.28, R 2.36, A 2.26, N 2.92, W 1.92
V18: Q 3.21, K 3.43, Y 2.53, L 3.79, G 3.15, H 3.62, M 2.81, E 3.2, T 3.02, W 2.03, P 3.16, S 3.31, A 2.95, F 2.58, R 2.66, D 3.43, I 3.04, C 2.95, N 3.63
E23: C 2.34, H 2.93, P 2.25, A 2.68, W 1.78, G 2.58, M 2.7, D 3.32, S 2.89, V 2.27, N 3.14, T 3.02, R 2.29, Q 2.63, K 2.68, Y 2.76, I 2.69, F 1.99, L 2.19
K11: Q 3.21, C 3.12, P 4.1, S 3.36, M 2.78, F 2.94, W 2.28, E 3.69, T 2.89, N 3.55, L 3.05, V 2.81, A 3.23, H 3.28, D 3.79, G 3.71, I 2.85, Y 2.66, R 2.59
A17: F 2.49, Y 2.46, L 2.51, N 2.65, E 3.56, M 2.75, R 2.76, S 2.71, V 2.89, D 3.74, G 3.1, W 2.16, I 2.85, K 3.41, C 3.39, P 2.84, Q 3.04, H 2.95, T 3.18
E24: W 1.91, V 2.25, M 2.34, Q 2.84, T 2.82, N 2.7, F 2.04, D 3.45, I 2.19, H 2.39, Y 2.02, C 3.06, A 2.79, R 2.1, K 2.41, S 2.77, L 2.55, G 2.68, P 2.53
